Key:
[1] = biological target: Survival Motor Neuron (SMN) protein, recombinant (UniProt Q16637); test: SPR
[2] = biological target: recombinant SMN (Survival Motor Neuron protein) (UniProt Q16637); test: SPR

Question: For “purified SMN-free 80S ribosomes from NSC-34 cells depleted from SMN (from UniProt P61255 1-145) (complex)”, which Kd [1] is on record?
Answer: 10 pM

Question: Which results are given for “purified SMN-free 80S ribosomes from NSC-34 cells depleted of SMN (complex)”?
Answer: Kd [2]: 9.8 pM; koff [2]: 9.4e-05 s⁻¹; kon [2]: 9.7e+06 M⁻¹ s⁻¹
